Measured values reported in the supplement of paper PMC9732359.
± gives the uncertainty stated by the source.

Test: protein stability index of a GFP-peptide fusion (yeast GPS) (PSI 1-4); higher = more stable; sorted into four equal gates, so the index is relative within each strain
How it was run: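 Yeast carrying a pooled library were grown to mid-log phase in leucine-free medium. Each library plasmid expresses Cherry and has a tiled 17-residue yeast protein peptide fused downstream of GFP. Cells were sorted into four equal gates by GFP/Cherry ratio, and plasmids from each gate were PCR-amplified, Illumina-sequenced and assigned to strains by barcode. Summing, across gates, the read frequency times the gate number gave each peptide's protein stability index.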

Sequence | protein stability index (doa10∆) | protein stability index (pdr5∆) | protein stability index (san1∆) | protein stability index (ubr1∆)
SAMPAPYMPYYYYYHPM [DSN1] | 2.4 ± 0.058 | 2.87 ± 0.056 | 2.74 ± 0.049 | 2.84 ± 0.042
YIESKFCPGEIVGKSNV [YMR129W/POM152] | 2.86 ± 0.1 | 2.92 ± 0.1 | – | 2.65 ± 0.07
LNVSNTKENGDFTLPED [PRP8] | 2.98 ± 0.1 | 3.14 ± 0.11 | 3.12 ± 0.049 | 3.21 ± 0.069
LDEVDAALDLSHTQNIG [SMC2] | 3.07 ± 0.17 | 3.21 ± 0.1 | 3.02 ± 0.11 | 3.12 ± 0.067
PSEFHCLQDALDAIDDF [SSN2] | 3.14 ± 0.1 | 3.16 ± 0.067 | 3.12 ± 0.05 | 3.09 ± 0.097
AVNMTQNIMTLPDGKNG [MED6] | 2.79 ± 0.11 | 3.04 ± 0.056 | 2.67 ± 0.059 | 3.07 ± 0.062
RKKTPAGDWKYDRQLSS [FAS2] | 1.25 ± 0.066 | 2.43 ± 0.092 | 1.59 ± 0.19 | 1.32 ± 0.079
AEQPLPVSPLDIYSDEA [RPS2] | 2.79 ± 0.07 | 2.97 ± 0.064 | 2.9 ± 0.038 | 2.92 ± 0.052
YNTSILEFRWLTSSKSV [SIN4] | 1.79 ± 0.065 | 1.91 ± 0.081 | 1.96 ± 0.079 | 2.48 ± 0.1
FIESIVVDFKNKENDNV [SNF12] | 2.55 ± 0.15 | 3.04 ± 0.18 | – | 3.03 ± 0.27
APTRELVQQIQKETQKV [PRP28] | 2.8 ± 0.087 | 3.14 ± 0.078 | 2.95 ± 0.06 | 3.14 ± 0.065
VTNNVEEGEFIIDLYSL [TAF14] | 3.38 ± 0.085 | 3.48 ± 0.083 | 3.58 ± 0.057 | 3.54 ± 0.06
KRLGPKRANNIRKFFGL [RPS6A] | 3.52 ± 0.077 | 3.56 ± 0.071 | 3.25 ± 0.038 | 3.46 ± 0.045
CKLFDKISFNLRLKLFL [SRB8] | 1.41 ± 0.069 | 1.23 ± 0.055 | 1.2 ± 0.086 | 1.18 ± 0.046
VTLNKYCSGNIYDFHKM [YJL039C/NUP192] | 2.7 ± 0.044 | 2.81 ± 0.051 | 2.91 ± 0.04 | 2.78 ± 0.041
SYANLPGTITHGMFSSA [FAS1] | 2.64 ± 0.06 | 2.15 ± 0.051 | 2.16 ± 0.055 | 2.51 ± 0.035
CRDSDDHKRFIVFHNEF [DIS3] | 3.02 ± 0.1 | 3.26 ± 0.084 | 2.33 ± 0.2 | 3.23 ± 0.065
KMVGLRGFNNQIMQLKK [SNF2] | 3.35 ± 0.063 | 3.21 ± 0.073 | 3.04 ± 0.068 | 3.35 ± 0.041
KNGAQDLVLQILEDTAT [RRI2] | 3.37 ± 0.08 | 3.3 ± 0.095 | 3.33 ± 0.054 | 3.18 ± 0.072
GVFDPASYSKYLIDHIK [RPL22B] | 3.12 ± 0.051 | 3.1 ± 0.069 | 2.92 ± 0.06 | 2.9 ± 0.043
FTIVSLVQLKKFSDLKF [YML103C/NUP188] | 2.37 ± 0.17 | 2.5 ± 0.097 | 2.7 ± 0.1 | 2.06 ± 0.073
LLYELTAFKATVFFLIR [YJL039C/NUP192] | 2.32 ± 0.071 | 2.36 ± 0.09 | 1.82 ± 0.077 | 2.43 ± 0.063
QSTNLNRSAKNSKNDSA [YCS4] | 2.53 ± 0.05 | 2.63 ± 0.05 | 2.67 ± 0.064 | 2.79 ± 0.046
QVVVDAITNTGPREDTT [RPS5] | 2.95 ± 0.064 | 2.95 ± 0.058 | 2.82 ± 0.064 | 2.73 ± 0.042
VDEELGPSIYKTDPAGY [SCL1] | 3.12 ± 0.084 | 3.35 ± 0.074 | 3.29 ± 0.072 | 3.27 ± 0.083
ADDAISMHLLKDWTDTF [SRB8] | 3.12 ± 0.056 | 2.94 ± 0.058 | 2.94 ± 0.044 | 2.95 ± 0.065
